± gives the uncertainty stated by the source.

To fix the notation:
B1: Tripartite motif-containing protein 6, residues 93 to 134; numbered along this chain, Q9C030 (parent)
chain: KAVLCADHGEKLQLFCQEDGKVICWLCERSQEHRGHHTFLVE

Variants of B1 are the subject of this series. The experiment in a line: abundance fitness (aPCA) (normalised: wild type 0, dead -1); higher = more abundant; growth selection in yeast, the domain comes from the species named. The conditions noted are these: Homo sapiens.
On to KAVLCADHGEKLQLFCQEDGEVICWLCERSQEHRGHHTFLVE, for which the abundance fitness was found to be 0.047 ± 0.091. Then KAVLCADHGEKLQLFCQEDGMVICWLCERSQEHRGHHTFLVE, with -0.284 ± 0.087. As for KAVLCADHGEKLQLFCQEDGHVICWLCERSQEHRGHHTFLVE, the abundance fitness was -0.136 ± 0.12. With KAVLCADHGEKLQLFCQEDGRVICWLCERSQEHRGHHTFLVE the figure was 0.086 ± 0.055; with KAVLCADHGEKLQLFCQEDGYVICWLCERSQEHRGHHTFLVE, -0.035 ± 0.09. In the case of KAVLCADHGEKLQLFCQEDGVVICWLCERSQEHRGHHTFLVE, the abundance fitness was 0.086 ± 0.065. With KAVLCADHGEKLQLFCQEDGQVICWLCERSQEHRGHHTFLVE the figure was -0.358 ± 0.19. With KAVLCADHGEKLQLFCQEDGCVICWLCERSQEHRGHHTFLVE the figure was -0.402 ± 0.38; with KAVLCADHGEKLQLFCQEDGNVICWLCERSQEHRGHHTFLVE, -0.034 ± 0.16.

In the case of KAVLCADHGEKLQLFCQEDGDVICWLCERSQEHRGHHTFLVE, the abundance fitness is -0.29 ± 0.23. Then KAVLCADHGEKLQLFCQEDGWVICWLCERSQEHRGHHTFLVE, with -0.403 ± 0.079. For the variant KAVLCADHGEKLQLFCQEDGTVICWLCERSQEHRGHHTFLVE, the abundance fitness was -0.183 ± 0.17. Then KAVLCADHGEKLQLFCQEDGLVICWLCERSQEHRGHHTFLVE, with -0.283 ± 0.063; and KAVLCADHGEKLQLFCQEDGFVICWLCERSQEHRGHHTFLVE, with -0.403 ± 0.26. With KAVLCADHGEKLQLFCQEDGAVICWLCERSQEHRGHHTFLVE the figure was -0.099 ± 0.078; with KAVLCADHGEKLQLFCQEDGKVICSLCERSQEHRGHHTFLVE, 0.068 ± 0.053; with KAVLCADHGEKLQLFCQEDGKVICCLCERSQEHRGHHTFLVE, 0.026 ± 0.051. For the variant KAVLCADHGEKLQLFCQEDGKVICHLCERSQEHRGHHTFLVE, the abundance fitness is 0.12 ± 0.056. Regarding KAVLCADHGEKLQLFCQEDGKVICPLCERSQEHRGHHTFLVE, the abundance fitness is -0.008 ± 0.074. Then KAVLCADHGEKLQLFCQEDGKVICVLCERSQEHRGHHTFLVE, with -0.033 ± 0.042; and KAVLCADHGEKLQLFCQEDGKVICELCERSQEHRGHHTFLVE, with 0.047 ± 0.048.

Turning to KAVLCADHGEKLQLFCQEDGKVICQLCERSQEHRGHHTFLVE, the abundance fitness came out at 0.12 ± 0.05.

KAVLCADHGEKLQLFCQEDGKVICFLCERSQEHRGHHTFLVE: the abundance fitness is 0.023 ± 0.078. Turning to KAVLCADHGEKLQLFCQEDGKVICKLCERSQEHRGHHTFLVE, the abundance fitness is 0.211 ± 0.053. With KAVLCADHGEKLQLFCQEDGKVICMLCERSQEHRGHHTFLVE the figure was 0.135 ± 0.058; with KAVLCADHGEKLQLFCQEDGKVICLLCERSQEHRGHHTFLVE, -0.025 ± 0.041. Then KAVLCADHGEKLQLFCQEDGKVICALCERSQEHRGHHTFLVE, with 0.118 ± 0.044. With KAVLCADHGEKLQLFCQEDGKVICGLCERSQEHRGHHTFLVE the figure was -0.01 ± 0.041. Consider KAVLCADHGEKLQLFCQEDGKVICTLCERSQEHRGHHTFLVE, for which the abundance fitness is 0.094 ± 0.052.

For KAVLCADHGEKLQLFCQEDGKVICDLCERSQEHRGHHTFLVE, the abundance fitness worked out at 0.067 ± 0.11. Then KAVLCADHGEKLQLFCQEDGKVICILCERSQEHRGHHTFLVE, with -0.024 ± 0.12; and KAVLCADHGEKLQLFCQEDGKVICRLCERSQEHRGHHTFLVE, with 0.173 ± 0.038. Then KAVLCADHGEKLQLFCQEDGKVICNLCERSQEHRGHHTFLVE, with 0.11 ± 0.079; and KAVLCADHGEKLQLFCQEDGKVIRWLCERSQEHRGHHTFLVE, with -1.02 ± 0.15; and KAVLCADHGEKLQLFCQEDGKVILWLCERSQEHRGHHTFLVE, with -1.1 ± 0.21. KAVLCADHGEKLQLFCQEDGKVIDWLCERSQEHRGHHTFLVE: the abundance fitness was -0.822 ± 0.16. Then KAVLCADHGEKLQLFCQEDGKVIIWLCERSQEHRGHHTFLVE, with -0.753 ± 0.46. Then KAVLCADHGEKLQLFCQEDGKVIKWLCERSQEHRGHHTFLVE, with -0.615 ± 0.31; and KAVLCADHGEKLQLFCQEDGKVIGWLCERSQEHRGHHTFLVE, with -1.16 ± 0.12; and KAVLCADHGEKLQLFCQEDGKVIWWLCERSQEHRGHHTFLVE, with -0.908 ± 0.33.

For KAVLCADHGEKLQLFCQEDGKVIQWLCERSQEHRGHHTFLVE, the abundance fitness was -0.748 ± 0.12.

Turning to KAVLCADHGEKLQLFCQEDGKVISWLCERSQEHRGHHTFLVE, the abundance fitness was -0.717 ± 0.14. As for KAVLCADHGEKLQLFCQEDGKVITWLCERSQEHRGHHTFLVE, the abundance fitness was -0.664 ± 0.19. On to KAVLCADHGEKLQLFCQEDGKVIEWLCERSQEHRGHHTFLVE, for which the abundance fitness is -0.627 ± 0.093.

On to KAVLCADHGEKLQLFCQEDGKVIYWLCERSQEHRGHHTFLVE, for which the abundance fitness was -0.725 ± 0.34. In the case of KAVLCADHGEKLQLFCQEDGKVIAWLCERSQEHRGHHTFLVE, the abundance fitness was -0.886 ± 0.16.

Consider KAVLCADHGEKLQLFCQEDGKVIVWLCERSQEHRGHHTFLVE, for which the abundance fitness was -1.19 ± 0.18.

Regarding KAVLCADHGEKLQLFCQEDGKVIPWLCERSQEHRGHHTFLVE, the abundance fitness was -0.517 ± 0.13. Regarding KAVLCADHGEKLQLFCQEDRKVICWLCERSQEHRGHHTFLVE, the abundance fitness was -0.111 ± 0.075. Then KAVLCADHGEKLQLFCQEDQKVICWLCERSQEHRGHHTFLVE, with -0.053 ± 0.084.

In the case of KAVLCADHGEKLQLFCQEDTKVICWLCERSQEHRGHHTFLVE, the abundance fitness was -0.142 ± 0.098. With KAVLCADHGEKLQLFCQEDVKVICWLCERSQEHRGHHTFLVE the figure was -0.431 ± 0.11. On to KAVLCADHGEKLQLFCQEDSKVICWLCERSQEHRGHHTFLVE, for which the abundance fitness is -0.331 ± 0.17. Regarding KAVLCADHGEKLQLFCQEDGKVICWFCERSQEHRGHHTFLVE, the abundance fitness is -0.517 ± 0.19. Turning to KAVLCADHGEKLQLFCQEDGKVICWACERSQEHRGHHTFLVE, the abundance fitness is -0.029 ± 0.066. With KAVLCADHGEKLQLFCQEDGKVICWVCERSQEHRGHHTFLVE the figure was -0.05 ± 0.056; with KAVLCADHGEKLQLFCQEDGKVICWDCERSQEHRGHHTFLVE, -0.05 ± 0.067; with KAVLCADHGEKLQLFCQEDGKVICWWCERSQEHRGHHTFLVE, -0.169 ± 0.08.

Regarding KAVLCADHGEKLQLFCQEDGKVICWSCERSQEHRGHHTFLVE, the abundance fitness is -0.059 ± 0.091. With KAVLCADHGEKLQLFCQEDGKVICWHCERSQEHRGHHTFLVE the figure was -0.079 ± 0.14.

These data come from the Human Domainome abundance scans (Beltran et al. 2025).
